Patent publication US20110239311A1, “Agonists of NR2F6 For Immunosupression” (Medizinische Universitat Innsbruck, priority 2008, published 2011)
Numbering of substitutions follows the chain as printed. In names and notes the source's numbering stands.

Legend:
[1] = system: IL-17A promoter:luciferase reporter; test: IL-17A promoter:luciferase reporter transrepression assay in Jurkat cells; type: cell-based, human; conditions: transient overexpression in Jurkat cells
Method: (§1) Jurkat-TAg cells (a kind gift from Dr. Crabtree, Stanford University, CA) have been transiently transfected with circular plasmid DNA by electroporation (BTX-T820 ElectroSquarePorator™, ITC, Biotech, Heidelberg, Germany), using predetermined optimal conditions (1×10^7 cells in 200 μl RPMI medium at 450 V/cm and 5 pulses of 99 msec), yielding approx. 40% transfection efficiency. NF-AT:AP-1 reporter gene expression was measured in transient cotransfection assays using 10 μg pSRα-CD28, 15 μg of the GFP or Nr2f6 expression vectors and 15 μg of the promoter firefly luciferase reporter (RLU1). The latter were a NF-AT:AP-1 composite site reporter (Macian et al., 2001), a NF-AT reporter construct containing three tandem copies of the NF-AT minimal consensus sequence and the proximal IL-17A promoter reporter (Liu et al., 2004). The proximal IL-17A promoter is also described elsewhere herein. After 21 h cells were stimulated with solid-phase CD3 and CD28 agonistic antibodies for 16 h or left unstimulated, as indicated and the firefly luciferase was measured employing the luciferase detection kit (Promega, Madison, Wis.) and the βJet-Luminometer (WALLAC, Turku, Finland).

[2] = system: NFAT/AP-1 promoter:luciferase reporter; test: NFAT/AP-1 promoter:luciferase reporter transrepression assay in Jurkat cells; type: cell-based, human; conditions: transient overexpression in Jurkat cells
Method: as §1

NR2F6-ER = target: T1, NR2F6-ER (UniProt P10588+P19785, G525R); test: NF-AT/AP-1 promoter luciferase reporter assay in NR2F6-ER transfected Jurkat T cells; type: cell-based, human; conditions: transiently transfected Jurkat T cells
T1 construct: expressed in transfected cells; host or cells: Jurkat T cells (transient electroporation)
Method: Jurkat T cells were maintained in RPMI medium supplemented with 10% FCS (Life Technologies, Inc.). Transient transfection of cells was performed by electroporation in a BTX-T820 ElectroSquarePorator (ITC, Biotech, Heidelberg, Germany) apparatus using predetermined optimal conditions: 2×10^7 cells at 450 V/cm and 5 pulses of 99 msec. Optimix medium (Equibio, Kent, UK) was used for studies of promoter reporter gene expression. Reporter gene expression was measured in co-transfection assays using 15 μg of the NR2F6 wild-type or mutant expression vectors and 15 μg of the AP-1/NF-AT promoter firefly luciferase reporter (RLU1). For normalization 0.3 μg of the renilla luciferase reporter vector pTK-Renilla-Luc (Promega, Medison, Wi) (RLU2) has been used.
T1 sequence (P10588+P19785 with tags, fused parts or gaps P19785:G525R): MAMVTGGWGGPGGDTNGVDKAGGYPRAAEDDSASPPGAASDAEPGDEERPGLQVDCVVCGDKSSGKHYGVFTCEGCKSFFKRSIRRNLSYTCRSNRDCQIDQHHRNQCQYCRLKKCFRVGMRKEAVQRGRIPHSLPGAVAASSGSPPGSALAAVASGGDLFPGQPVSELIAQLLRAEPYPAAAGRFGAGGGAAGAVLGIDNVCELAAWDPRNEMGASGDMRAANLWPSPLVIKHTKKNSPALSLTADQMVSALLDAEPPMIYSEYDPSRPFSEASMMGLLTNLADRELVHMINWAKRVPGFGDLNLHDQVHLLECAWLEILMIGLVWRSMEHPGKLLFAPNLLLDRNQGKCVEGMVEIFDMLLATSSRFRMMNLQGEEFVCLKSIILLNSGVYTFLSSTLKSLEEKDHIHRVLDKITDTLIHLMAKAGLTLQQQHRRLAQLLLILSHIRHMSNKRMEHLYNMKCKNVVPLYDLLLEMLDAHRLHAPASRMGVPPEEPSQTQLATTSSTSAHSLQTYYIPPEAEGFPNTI

CD4+ T cells = test: IL-2 secretion of transfected CD4+ T cells upon CD3 plus CD28 stimulation; type: cell-based, mouse; conditions: vs control transfection
Method: CD4+ T cells were negatively selected by magnetic cell sorting (Miltenyi Biotec). T cell populations were typically 95% CD4+, as determined by staining and flow cytometry. Cells were resuspended in solution from Nucleofactor mouse T cell kit and program X-01 following the Amaxa guidelines for cell-line transfection. In brief, up to 1×10^7 cells were mixed with 1.5 μM of synthetic ON-TARGETpIus siRNA predesigned by Dharmacon (i.e., order code 045088) as pool (see SEQ ID NOs: 19 to 26) or ON-TARGETplussiCONTROL nontargeting pool were nucleofected with the Amaxy Nucleofactor apparatus and immediately transferred into 37° C. prewarmed culture medium and cultured for a minimum of 24 hours before experimental analysis; see also FIG. 16.
Analysis of cytokine production: Cytokine production of mouse CD4^+ T cells after Th17 polarizing stimulation was assessed via the BioPlex technology (BioRad) according to manufacturer's instructions.

NR2F6 = target: T2, NR2F6 (Homo sapiens, UniProt P10588); test: RARE containing renilla luciferase reporter assay in NR2F6 transfected Jurkat T cells; type: cell-based; conditions: CD3/CD28 with or without RA 20 microM
T2 construct: expressed in transfected cells; host or cells: Jurkat T cells (transient electroporation)
T2 sequence (P10588 1-404): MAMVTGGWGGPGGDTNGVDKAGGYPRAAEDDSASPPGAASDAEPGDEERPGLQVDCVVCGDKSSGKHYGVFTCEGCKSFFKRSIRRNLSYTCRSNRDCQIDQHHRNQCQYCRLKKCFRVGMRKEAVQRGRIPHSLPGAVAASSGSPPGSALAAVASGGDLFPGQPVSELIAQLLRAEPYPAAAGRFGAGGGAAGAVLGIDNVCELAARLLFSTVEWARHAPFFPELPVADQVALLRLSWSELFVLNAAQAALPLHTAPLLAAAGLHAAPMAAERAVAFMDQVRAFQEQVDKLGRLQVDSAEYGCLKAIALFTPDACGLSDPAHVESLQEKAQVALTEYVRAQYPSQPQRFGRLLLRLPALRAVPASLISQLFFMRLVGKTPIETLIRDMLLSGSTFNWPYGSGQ
Method: Jurkat T cells were maintained in RPMI medium supplemented with 10% FCS (Life Technologies, Inc.). Transient transfection of cells was performed by electroporation in a BTX-T820 ElectroSquarePorator (ITC, Biotech, Heidelberg, Germany) apparatus using predetermined optimal conditions: 2×10^7 cells at 450 V/cm and 5 pulses of 99 msec. Optimix medium (Equibio, Kent, UK) was used for studies of promoter reporter gene expression. Reporter gene expression was measured in co-transfection assays using 15 μg of the NR2F6 wild type or mutant expression vectors and 5 μg of the RARE containing renilla luciferase reporter vector pTK-Renilla-Luc (Promega, Medison, Wi). After 24 hrs cells were stimulated with solid phase CD3 and CD28 antibodies with or without retinoic acid (RA at 20 microM) for 16 hrs, as indicated.

B1: NR2F2 wild type: the closest relative of NR2F6, used as control (protein, UniProt P24468 1-414, looked up)
COUP transcription factor 2: MAMVVSTWRDPQDEVPGSQGSQASQAPPVPGPPPGAPHTPQTPGQGGPASTPAQTAAGGQGGPGGPGSDKQQQQQHIECVVCGDKSSGKHYGQFTCEGCKSFFKRSVRRNLSYTCRANRNCPIDQHHRNQCQYCRLKKCLKVGMRREAVQRGRMPPTQPTHGQFALTNGDPLNCHSYLSGYISLLLRAEPYPTSRFGSQCMQPNNIMGIENICELAARMLFSAVEWARNIPFFPDLQITDQVALLRLTWSELFVLNAAQCSMPLHVAPLLAAAGLHASPMSADRVVAFMDHIRIFQEQVEKLKALHVDSAEYSCLKAIVLFTSDACGLSDVAHVESLQEKSQCALEEYVRSQYPNQPTRFGKLLLRLPSLRTVSSSVIEQLFFVRLVGKTPIETLIRDMLLSGSSFNWPYMAIQ
trans-repression of CD3/CD28 activation-induced IL-17A promoter:luciferase reporter [1]: not able to suppress | trans-repression of CD3/CD28 activation-induced NFAT/AP-1 promoter:luciferase reporter [2]: not able to suppress

B2: NR2F6-ER: conditionally activated NR2F6 estrogen-receptor ligand binding domain mutant (ERmut-LBD) fusion protein, SEQ ID NO: 10 (protein)
chain: MAMVTGGWGGPGGDTNGVDKAGGYPRAAEDDSASPPGAASDAEPGDEERPGLQVDCVVCGDKSSGKHYGVFTCEGCKSFFKRSIRRNLSYTCRSNRDCQIDQHHRNQCQYCRLKKCFRVGMRKEAVQRGRIPHSLPGAVAASSGSPPGSALAAVASGGDLFPGQPVSELIAQLLRAEPYPAAAGRFGAGGGAAGAVLGIDNVCELAWDPRNEMGASGDMRAANLWPSPLVIKHTKKNSPALSLTADQMVSALLDAEPPMIYSEYDPSRPFSEASMMGLLTNLADRELVHMINWAKRVPGFGDLNLHDQVHLLECAWLEILMIGLVWRSMEHPGKLLFAPNLLLDRNQGKCVEGMVEIFDMLLATSSRFRMMNLQGEEFVCLKSIILLNSGVYTFLSSTLKSLEEKDHIHRVLDKITDTLIHLMAKAGLTLQQQHRRLAQLLLILSHIRHMSNKGMEHLYNMKCKNVVPLYDLLLEMLDAHRLHAPASRMGVPPEEPSQTQLATTSSTSAHSLQTYYIPPEAEGFPNTI
modifications: /note=“Description of artificial sequence amino acid sequence of NR2F6 wild-type Er-LBD fusion mutant”
CD3/CD28-induced NF-AT/AP-1 composite element-dependent reporter (NR2F6-ER): repressed

B3: NR2F6: recombinant overexpressed nuclear receptor subfamily 2, group F, member 6 (Ear2), SEQ ID NO: 2 (protein, listed as Homo sapiens)
chain: T2 sequence (P10588 1-404)
IL-2 cytokine secretion (CD4+ T cells): significantly suppresses IL-2 secretion responses | trans-repression of CD3/CD28 activation-induced IL-17A promoter:luciferase reporter [1]: robust and reproducible trans-repression | trans-repression of CD3/CD28 activation-induced NFAT/AP-1 promoter:luciferase reporter [2]: robust and reproducible trans-repression

B4: C112S: C112S zinc finger mutant of NR2F6, defective in DNA binding, SEQ ID NOs: 30 and 31 (protein)
chain: T2 sequence (P10588 1-404) with C111S
modifications: /note=“Description of artificial sequence amino acid sequence of C112S mutated NR2F6”
transcriptional repressor activity (RARE reporter) (NR2F6): lost its transcriptional repressor activity | trans-repression of CD3/CD28 activation-induced IL-17A promoter:luciferase reporter [1]: lost its transcriptional repressor activity | trans-repression of CD3/CD28 activation-induced NFAT/AP-1 promoter:luciferase reporter [2]: lost its transcriptional repressor activity

B5: S83E: S83E mutant of NR2F6, Ser-83 phospho-mimic, DNA-binding deficient, SEQ ID NO: 8 (protein, listed as Homo sapiens)
chain: T2 sequence (P10588 1-404) with S83E
modifications: VARIANT (83)..(83) S83E mutation
transcriptional repressor activity (RARE reporter) (NR2F6): lost its transcriptional repressor activity | trans-repression of CD3/CD28 activation-induced IL-17A promoter:luciferase reporter [1]: not able to suppress | trans-repression of CD3/CD28 activation-induced NFAT/AP-1 promoter:luciferase reporter [2]: not able to suppress
